Tested on: CC(C)CCCCCCC/C=C\C(=O)O
Experiment: purified protein
Conditions: pH 7.0 phosphate (standard of pH 6, 7, 8 tested); co-substrates 5 mM ATP, 0.5 mM CoA; 10 mM MgCl2, 2 mM EDTA, 0.1% Triton X-100; 37°C in b48 (28°C elsewhere in the source)

## RpfB (Xanthomonas campestris pv. campestris str. ATCC 33913)
  Km: 6.5 µM

— PMC9040794, “The Plant Defense Signal Salicylic Acid Activates the RpfB-Dependent Quorum Sensing Signal Turnover via Altering the Culture and Cytoplasmic pH in the Phytopathogen Xanthomonas campestris” (mBio, 2022)
